Here are results for 57 variants from the RNAGym collection of RNA variant scans (doi:10.7554/elife.80360).

Sequences and labels used below:
B1: Hammerhead Ribozyme (parent)
chain: ACCGGAUGUGCUUUCCGGUCUGAUGAGUCCGUGAGGACGAAACAG

In this series the parent is B1. The series is described as follows: self-cleavage, relative activity (ratio to wild type); higher = more cleavage; co-transcriptional.
Consider ACCGGAUGUGCAUUCCGGUCUGAUGAGUCCGUGAGGACGAAACAG [U12A], for which the self-cleavage is 1.05.

As for ACCGGAUGUGCAUUGCGGUCUGAUGAGUCCGUGAGGACGAAACAG [U12A C15G], the self-cleavage amounted to 0.85.

In the case of ACCGGAUGUGCAUUUCGGUCUGAUGAGUCCGUGAGGACGAAACAG [U12A C15U], the self-cleavage was 0.668.

Take ACCGGAUGUGCAUUACGGUCUGAUGAGUCCGUGAGGACGAAACAG [U12A C15A]: the self-cleavage worked out at 0.979.

ACCGGAUGUGCAUUCCGGUCUGAUGAAUCCGUGAGGACGAAACAG [U12A G27A]: the self-cleavage worked out at 0.77.

On to ACCGGAUGUGCAUUCCGGUCUGAUGACUCCGUGAGGACGAAACAG [U12A G27C], for which the self-cleavage worked out at 0.663.

As to ACCGGAUGUGCAUUCCGGUCUGAUGAUUCCGUGAGGACGAAACAG [U12A G27U], the self-cleavage was 0.412.

Turning to ACCGGAUGUGCAUUCCGGUCUGAUGAGUCCGUGAGGACGAAACGG [U12A A44G], the self-cleavage was 1.66.

As to ACCGGAUGUGCAUUCCGGUCUGAUGAGUCCGUGAGGACGAAACCG [U12A A44C], the self-cleavage was 0.481.

In the case of ACCGGAUGUGCAUUCCGGUCUGAUGAGUCCGUGAGGACGAAACUG [U12A A44U], the self-cleavage is 0.61.

ACCGGAUGUGUUGUCCGGUCUGAUGAGUCCGUGAGGACGAAACAG [C11U U13G]: the self-cleavage turned out to be 1.25.

As for ACCGGAUGUGUUCUCCGGUCUGAUGAGUCCGUGAGGACGAAACAG [C11U U13C], the self-cleavage is 0.915.

As to ACCGGAUGUGUUAUCCGGUCUGAUGAGUCCGUGAGGACGAAACAG [C11U U13A], the self-cleavage was 1.34.

As for ACCGGAUGUGCAUUCCGGUCUGAUGAGUCCGUGAGGACCAAACAG [U12A G39C], the self-cleavage was determined as 0.338.

For the variant ACCGGAUGUGCAUUCCGGUCUGAUGAGUCCGUGAGGACUAAACAG [U12A G39U], the self-cleavage was found to be 0.361.

For the variant ACCGGAUGUGCAUUCCGGUCUGAUGAGUCCGUGAGGACAAAACAG [U12A G39A], the self-cleavage stood at 0.257.

For ACCGGAUGUGCAUUCCGGUCUGAUGAGUCCGUGAGGACGAAAUAG [U12A C43U], the self-cleavage came to 0.392.

Take ACCGGAUGUGCAUUCCGGUCUGAUGAGUCCGUGAGGACGAAAGAG [U12A C43G]: the self-cleavage amounted to 0.301.

With ACCGGAUGUGCAUUCCGGUCUGAUGAGUCCGUGAGGACGAAAAAG [U12A C43A], the self-cleavage is 0.33.

Regarding ACCGGAUGUGCAUUCCGGUCUGAUGAGUCCGUGAGGGCGAAACAG [U12A A37G], the self-cleavage amounted to 0.71.

In the case of ACCGGAUGUGCAUUCCGGUCUGAUGAGUCCGUGAGGCCGAAACAG [U12A A37C], the self-cleavage is 1.2.

ACCGGAUGUGCAUUCCGGUCUGAUGAGUCCGUGAGGUCGAAACAG [U12A A37U]: the self-cleavage came out at 0.827.

With ACCGGAUGUGUAUUCCGGUCUGAUGAGUCCGUGAGGACGAAACAG [C11U U12A], the self-cleavage is 1.3.

On to ACCGGAUGUGUCUUCCGGUCUGAUGAGUCCGUGAGGACGAAACAG [C11U U12C], for which the self-cleavage was determined as 1.28.

ACCGGAUGUGUGUUCCGGUCUGAUGAGUCCGUGAGGACGAAACAG [C11U U12G]: the self-cleavage was found to be 1.18.

As to ACCGGAUGUGCAUUCCGGUGUGAUGAGUCCGUGAGGACGAAACAG [U12A C20G], the self-cleavage amounted to 0.312.

As to ACCGGAUGUGCAUUCCGGUUUGAUGAGUCCGUGAGGACGAAACAG [U12A C20U], the self-cleavage came to 0.431.

Turning to ACCGGAUGUGCAUUCCGGUAUGAUGAGUCCGUGAGGACGAAACAG [U12A C20A], the self-cleavage turned out to be 0.313.

ACCGGAUGUGCAUUCCGGUCUGAUGAGUCCGUGCGGACGAAACAG [U12A A34C]: the self-cleavage came to 1.08.

In the case of ACCGGAUGUGCAUUCCGGUCUGAUGAGUCCGUGUGGACGAAACAG [U12A A34U], the self-cleavage turned out to be 1.

Turning to ACCGGAUGUGCAUUCCGGUCUGAUGAGUCCGUGGGGACGAAACAG [U12A A34G], the self-cleavage was 0.904.

On to ACCGGAUGUGCAUUCCGGUCUGAUGAGUCCGUGAGGAAGAAACAG [U12A C38A], for which the self-cleavage is 0.807.

As to ACCGGAUGUGCAUUCCGGUCUGAUGAGUCCGUGAGGAUGAAACAG [U12A C38U], the self-cleavage is 0.87.

Regarding ACCGGAUGUGCAUUCCGGUCUGAUGAGUCCGUGAGGAGGAAACAG [U12A C38G], the self-cleavage worked out at 0.719.

In the case of ACCGGAUGUGCAUUCCGGUCUGAUGAGUCCGUGACGACGAAACAG [U12A G35C], the self-cleavage was found to be 0.653.

Turning to ACCGGAUGUGCAUUCCGGUCUGAUGAGUCCGUGAUGACGAAACAG [U12A G35U], the self-cleavage worked out at 0.629.

Regarding ACCGGAUGUGCAUUCCGGUCUGAUGAGUCCGUGAAGACGAAACAG [U12A G35A], the self-cleavage was 0.724.

In the case of ACCGGAUGUGUUUUCCGGUCUGAUGAGGCCGUGAGGACGAAACAG [C11U U28G], the self-cleavage is 0.703.

Regarding ACCGGAUGUGUUUUCCGGUCUGAUGAGACCGUGAGGACGAAACAG [C11U U28A], the self-cleavage stood at 0.768.

Take ACCGGAUGUGUUUUCCGGUCUGAUGAGCCCGUGAGGACGAAACAG [C11U U28C]: the self-cleavage worked out at 0.954.

As for ACCGGAUGUGCAUUCCGGUCUGAUGAGUCCGUGAGGACGAGACAG [U12A A41G], the self-cleavage turned out to be 0.32.

Take ACCGGAUGUGCAUUCCGGUCUGAUGAGUCCGUGAGGACGACACAG [U12A A41C]: the self-cleavage is 0.325.

As for ACCGGAUGUGCAUUCCGGUCUGAUGAGUCCGUGAGGACGAUACAG [U12A A41U], the self-cleavage was 0.388.

For the variant ACCGGAUGUGCAUUCCGGUCUGAUGAGUCGGUGAGGACGAAACAG [U12A C30G], the self-cleavage came to 0.859.

As for ACCGGAUGUGCAUUCCGGUCUGAUGAGUCAGUGAGGACGAAACAG [U12A C30A], the self-cleavage was determined as 1.08.

As for ACCGGAUGUGCAUUCCGGUCUGAUGAGUCUGUGAGGACGAAACAG [U12A C30U], the self-cleavage is 1.07.

As for ACCGGAUGUGCAUUCCGGUCUGAUGGGUCCGUGAGGACGAAACAG [U12A A26G], the self-cleavage amounted to 0.424.

In the case of ACCGGAUGUGCAUUCCGGUCUGAUGCGUCCGUGAGGACGAAACAG [U12A A26C], the self-cleavage came to 0.429.

As to ACCGGAUGUGCAUUCCGGUCUGAUGUGUCCGUGAGGACGAAACAG [U12A A26U], the self-cleavage came out at 0.587.

In the case of ACCGGAUGUGCAUUCCGGUCUGAUGAGUCCGUGAGCACGAAACAG [U12A G36C], the self-cleavage was found to be 0.758.

On to ACCGGAUGUGCAUUCCGGUCUGAUGAGUCCGUGAGAACGAAACAG [U12A G36A], for which the self-cleavage is 0.571.

On to ACCGGAUGUGCAUUCCGGUCUGAUGAGUCCGUGAGUACGAAACAG [U12A G36U], for which the self-cleavage turned out to be 0.596.

With ACCGGAUGUGCAUUCCGGUCUGAUGAGUCCGUGAGGACGAAGCAG [U12A A42G], the self-cleavage stood at 0.252.

For the variant ACCGGAUGUGCAUUCCGGUCUGAUGAGUCCGUGAGGACGAACCAG [U12A A42C], the self-cleavage is 0.359.

With ACCGGAUGUGCAUUCCGGUCUGAUGAGUCCGUGAGGACGAAUCAG [U12A A42U], the self-cleavage amounted to 0.313.

In the case of ACCGGAUGUGCAUUCCGGUCUGAUGAGUCCAUGAGGACGAAACAG [U12A G31A], the self-cleavage came to 0.978.

Take ACCGGAUGUGCAUUCCGGUCUGAUGAGUCCCUGAGGACGAAACAG [U12A G31C]: the self-cleavage was found to be 0.801.
